Measured values taken from patent US6676941B2 (Board of Regents, The University of Texas System, priority 1999, dated 2004).

Tested on: Bend3 mouse endothelial cells; ABAE; HUVEC
Assay: Direct binding of biotinylated 6-His endostatin to endothelial cells
Assay type: cell-based, bovine, human
Settings: streptavidin-peroxidase detection
Description: Binding was detected using streptavidin-peroxidase in conjunction with O-phenylenediamine (OPD) and the absorbance read at 490 nm.

B1: endostatin (protein, UniProt P39060 1572-1754, looked up)
Endostatin: HSHRDFQPVLHLVALNSPLSGGMRGIRGADFQCFQQARAVGLAGTFRAFLSSRLQDLYSIVRRADRAAVPIVNLKDELLFPSWEALFSGSEGPLKPGARIFSFDGKDVLRHPTWPQKSVWHGSDPNGRRLTESYCETWRTEAPSATGQASSLLGGRLLGQSAASCHHAYIVLCIENSFMTASK
modifications: Endostatin
- Binding to endothelial cells in vitro: bound in a saturable fashion
